Results reported in PMC8051604.

Key:
[1] = biological target: CitCHS1 (citrus chalcone synthase 1), pGADT7 fusion (Citrus reticulata cv. Suavissima (Ougan))
[2] = biological target: CitCHS2 (citrus chalcone synthase 2), pGADT7 fusion (Citrus reticulata cv. Suavissima (Ougan))
[3] = biological target: CitERF33, split-YFP fusion (BiFC) (Citrus reticulata cv. Suavissima (Ougan))

k cat value of CitCHS1 for malonyl-CoA with CitCHIL1 against without it (in vitro chalcone synthase assay, purified recombinant proteins) [1] [fold]	k cat value of CitCHS1 for p-coumaroyl-CoA with CitCHIL1 against without it (in vitro chalcone synthase assay, purified recombinant proteins) [1] [fold]	k cat value of CitCHS2 for malonyl-CoA with CitCHIL1 against without it (in vitro chalcone synthase assay, purified recombinant proteins) [2] [fold]	k cat value of CitCHS2 for p-coumaroyl-CoA with CitCHIL1 against without it (in vitro chalcone synthase assay, purified recombinant proteins) [2] [fold]	activation of the CitCHIL1 promoter by CitERF33 and CitRAV1 together (dual-luciferase assay in N. benthamiana leaves, LUC/REN against empty vector; 1.6-fold for CitERF33/EV or CitRAV1/EV) [3] [fold]	Substance
1.86	1.81	1.33	1.43		CitCHIL1 (citrus type IV chalcone isomerase), pGBKT7 fusion (natural protein)
				10.6	CitRAV1, split-YFP fusion (BiFC) (natural protein)
